Reference: the Human Domainome abundance scans (Beltran et al. 2025)

B1: Far upstream element-binding protein 2, residues 142 to 214; numbered along this chain, Q92945 (parent)
chain: RTSMTEEYRVPDGMVGLIIGRGGEQINKIQQDSGCKVQISPDSGGLPERSVSLTGAPESVQKAKMMLDDIVSR
B2: Double-stranded RNA-binding protein Staufen homolog 1, residues 183 to 249; numbered along this chain, O95793 (parent)
chain: KSEISQVFEIALKRNLPVNFEVARESGPPHMKNFVTKVSVGEFVGEGEGKSKKISKKNAAIAVLEEL

Variants of: B1
Assay: abundance fitness (aPCA) (normalised: wild type 0, dead -1); higher = more abundant; growth selection in yeast, the domain comes from the species named
Conditions: Homo sapiens

Abundance fitness, by site and new letter:
Q61: A 0.015; K 0.045; H -0.196; L -0.109; R 0.013; N 0.016; V -0.102; G -0.053; C -0.164; F -0.106; E 0.01; S -0.06; M -0.051; D -0.168; W -0.176; T -0.018; I -0.064; P -0.618
M66: C -0.427; G -0.652; I -0.254; Y -0.379; F -0.383; W -0.473; D -0.529; A -0.185; K -0.462; L -0.041; P -0.532; T -0.661; E -0.514; N -0.688; V -0.456; R -0.512; S -0.428; Q -0.301; H -0.523
A63: Q -0.654; T -0.69; G -0.447; L -1.46; H -0.528; N -0.661; D -0.666; Y -0.811; M -1.24; P -0.648; W -1.55; S -0.782; V -0.748; C -0.222; R -0.865
E58: A -0.088; C -0.305; D -0.035; S -0.102; T -0.174; Y -0.203; G -0.124; Q -0.122; F -0.405; M -0.125; P -0.305; W -0.335; R -0.198; K -0.065; N -0.275; V -0.209; H -0.071
V60: K -0.377; D -0.789; F -0.82; Y -0.763; E -0.773; R -0.016; Q -0.586; H -0.727; C -0.355; A -0.689; I 0.119; M -0.265; S -0.741; W -1.26; L -0.191; G -0.745; N -0.636
G55: V -1.17; M -1.18; P -0.937; T -0.732; Y -0.878; L -1.18; W -1.83; Q -0.875; N -0.922; R -0.965
P57: S -0.245; F -0.357; V -0.192; T -0.325; W -0.24; A -0.101; C -0.432; D -0.609; I -0.289; L -0.316; E -0.259; Y -0.402; M -0.225; H -0.213; G -0.434; R -0.141; K -0.185
R73: L -0.004; V -0.074; I 0.027; H -0.099; W -0.201; G 0.177; C 0.108; T 0.124; E -0.013; A 0.034; S 0.055; F -0.162; D 0.021; K 0.016
A56: M -0.154; N -0.272; T 0.113; S -0.008; E -0.003; I -0.126; K -0.153; Y -0.091; D -0.025; C 0.088; G -0.114; W -0.281; R 0.012; L -0.1; H 0.026; V -0.099; Q -0.1; F -0.315
S72: E 0.007; M -0.024; K -0.048; T -0.042; A 0.016; N 0.026; H 0.019; R 0.052; V -0.085; D -0.032; P -0.282; L -0.103; Y -0.079; C -0.116; I -0.086; G 0.118; F -0.176; W -0.191
M65: A -0.008; H -0.066; I -0.025; D 0.02; C 0.011; V 0.008; N 0.017; S 0.025; W -0.211; F -0.136; K 0.067; R -0.023; Q 0.131
K64: M -0.457; G -0.757; S -0.553; C -0.554; A -0.558; N -0.703; W -0.662; I -0.275; H -0.442; Q -0.422; P -0.687; R -0.016; Y -0.926; V -0.465; T -0.445; E -0.653; D -0.567
D69: K -0.043; N -0.094; H -0.165; T -0.103; F -0.284; W -0.321; V -0.181; M -0.13; A -0.019; L -0.143; C -0.133; P -0.589; G -0.057; Q -0.097; Y -0.27; E -0.002; S -0.122; I -0.262
V71: R -0.224; Q -0.296; Y -0.22; P -0.553; T -0.032; F -0.157; M -0.037; W -0.211; C -0.052; L 0.001; E -0.485; A -0.142; K -0.174; N -0.461; G -0.294; I -0.057; D -0.458
L67: W -1.06; T -0.562; M -0.055; Y -0.84; D -0.462; R -0.778; P -0.652; S -0.553; Q -0.64; F -0.41; I 0.041; A -0.5; V -0.327; G -0.602; K -0.582; H -0.564; N -0.601
S59: V -0.326; Y -0.727; N -0.062; W -0.968; Q -0.037; L -0.619; F -0.528; C -0.063; M -0.206; K -0.216; D 0.003; R -0.373; I -0.848; G -0.149; H -0.081; P -0.769; A 0.008
D68: A -0.188; Q -0.116; H -0.241; V -0.456; I -0.494; P -0.882; L -0.564; F -0.469; T -0.278; N -0.007; E -0.06; K -0.098; S -0.138; M -0.337; W -0.62; G -0.144; C -0.372; R -0.126
K62: W -0.541; G -0.51; N -0.449; F -0.625; H -0.231; E -0.286; M -0.068; T -0.204; Q -0.048; C -0.288; V -0.127; L -0.169; I -0.126; S -0.194; A -0.173; D -0.663; Y -0.278
I70: D -0.574; C -0.141; Y -0.153; R -0.568; G -0.497; F -0.235; K -0.395; L 0.051; T -0.344; S -0.504; A -0.295; E -0.416; P -0.555; W -0.319; V -0.059

Variants of: B2
Assay: as above
Conditions: Homo sapiens

Abundance fitness of substitutions, site by site:
K1: H -0.738; C -0.177; D -0.235; T -0.166; E -0.263; L -0.3; Y -0.211; N -0.079; R -0.178; G -0.175; F -0.602; V -0.335; I -0.201; A -0.436; S -0.316; W -0.514
S2: F -0.709; D -0.382; E -0.381; C -0.482; G -0.136; A -0.41
